In doi:10.1101/779520:
Read-outs that look alike come from different tables or passages of the source.

B1: calbindin-D28k (natural protein)
chain: MAESHLQSSLITASQFFEIWLHFDADGSGYLEGKELQNLIQELLQARKKAGLELSPEMKSFVDQYGQRDDGKIGIVELAHVLPTEENFLLLFRCQQLKSCEEFMKTWRKYDTDHSGFIETEELKNFLKDLLEKANKTVDDTKLAEYTDLMLKLFDSNNDGKLELTEMARLLPVQENFLLKFQGIKMCGKEFNKAFELYDQDGNGYIDENELDALLKDLCEKNKQELDINNITTYKKNIMALSDGGKLYRTDLALILSAGDN

Legend:
[1] = molecular target: otoferlin (mouse (endogenous in inner hair cells)); assay: proximity ligation
otoferlin (mouse (endogenous in inner hair cells)), sequence (Q9ESF1 whole entry): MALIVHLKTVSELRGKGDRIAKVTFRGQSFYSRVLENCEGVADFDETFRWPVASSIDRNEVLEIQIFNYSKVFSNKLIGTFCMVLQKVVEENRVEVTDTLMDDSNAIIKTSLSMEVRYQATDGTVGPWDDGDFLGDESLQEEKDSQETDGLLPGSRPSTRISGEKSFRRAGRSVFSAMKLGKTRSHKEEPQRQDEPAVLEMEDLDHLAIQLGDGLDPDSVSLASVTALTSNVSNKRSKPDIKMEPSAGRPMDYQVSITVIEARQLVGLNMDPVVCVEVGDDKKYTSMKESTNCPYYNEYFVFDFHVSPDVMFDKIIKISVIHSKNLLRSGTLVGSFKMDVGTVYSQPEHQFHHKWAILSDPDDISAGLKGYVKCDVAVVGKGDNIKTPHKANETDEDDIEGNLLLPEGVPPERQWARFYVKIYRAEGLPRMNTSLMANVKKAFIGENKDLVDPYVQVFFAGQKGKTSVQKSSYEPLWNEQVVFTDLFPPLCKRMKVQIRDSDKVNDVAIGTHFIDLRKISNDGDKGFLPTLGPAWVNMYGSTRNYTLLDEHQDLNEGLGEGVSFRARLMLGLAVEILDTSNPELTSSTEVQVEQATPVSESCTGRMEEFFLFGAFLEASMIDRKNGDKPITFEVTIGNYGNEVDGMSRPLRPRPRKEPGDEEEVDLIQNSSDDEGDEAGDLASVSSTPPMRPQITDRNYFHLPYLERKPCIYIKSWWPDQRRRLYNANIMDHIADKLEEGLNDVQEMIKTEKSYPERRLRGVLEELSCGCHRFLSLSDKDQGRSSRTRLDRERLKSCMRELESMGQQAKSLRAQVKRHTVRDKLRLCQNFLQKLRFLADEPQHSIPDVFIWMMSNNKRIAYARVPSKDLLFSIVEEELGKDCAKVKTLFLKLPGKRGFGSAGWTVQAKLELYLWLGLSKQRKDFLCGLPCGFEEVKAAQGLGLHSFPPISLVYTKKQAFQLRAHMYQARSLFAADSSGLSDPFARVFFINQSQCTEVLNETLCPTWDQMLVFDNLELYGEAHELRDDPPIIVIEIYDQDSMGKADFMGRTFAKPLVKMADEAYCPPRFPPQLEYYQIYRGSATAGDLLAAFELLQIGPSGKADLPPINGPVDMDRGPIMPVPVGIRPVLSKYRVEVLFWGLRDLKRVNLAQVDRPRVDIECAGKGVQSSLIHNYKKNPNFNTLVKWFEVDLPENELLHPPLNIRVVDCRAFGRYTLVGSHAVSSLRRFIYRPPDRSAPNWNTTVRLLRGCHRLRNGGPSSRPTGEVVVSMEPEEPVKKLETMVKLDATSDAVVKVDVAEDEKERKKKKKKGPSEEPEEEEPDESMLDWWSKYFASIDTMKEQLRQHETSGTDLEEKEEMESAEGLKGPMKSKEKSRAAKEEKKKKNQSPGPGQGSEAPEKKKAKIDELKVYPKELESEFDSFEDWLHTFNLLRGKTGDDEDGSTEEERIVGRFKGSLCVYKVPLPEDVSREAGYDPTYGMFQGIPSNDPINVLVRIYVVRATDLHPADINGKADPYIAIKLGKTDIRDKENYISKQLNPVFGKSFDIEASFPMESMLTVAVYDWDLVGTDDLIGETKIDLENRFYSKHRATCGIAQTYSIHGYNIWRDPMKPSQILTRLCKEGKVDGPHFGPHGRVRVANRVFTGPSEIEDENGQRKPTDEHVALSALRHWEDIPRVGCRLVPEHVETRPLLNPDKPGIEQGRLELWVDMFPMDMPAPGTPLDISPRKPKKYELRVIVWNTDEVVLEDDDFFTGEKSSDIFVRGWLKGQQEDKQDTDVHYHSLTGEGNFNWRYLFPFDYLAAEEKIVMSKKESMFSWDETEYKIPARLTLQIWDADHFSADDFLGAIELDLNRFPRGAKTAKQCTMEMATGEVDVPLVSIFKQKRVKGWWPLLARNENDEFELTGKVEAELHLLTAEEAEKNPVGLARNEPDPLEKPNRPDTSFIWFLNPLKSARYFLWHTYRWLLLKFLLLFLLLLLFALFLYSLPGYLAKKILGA

[2] = molecular target: otoferlin (mouse (endogenous in inner hair cells)); assay: proximity ligation; remark: listed apart in the source

| Molecule | PLA puncta fluorescence intensity per cell, % of rest, PMA 5 min [1] [%] | PLA puncta fluorescence intensity per cell, % of rest, PMA 15 min [1] [%] | PLA puncta fluorescence intensity per cell, % of rest, after 1-min stimulation [1] [%] | PLA puncta fluorescence intensity per cell, % of rest, PMA 5 min [2] [%] | PLA puncta fluorescence intensity per cell, % of rest, PMA 15 min [2] [%] | PLA puncta fluorescence intensity per cell, % of rest, after 1-min stimulation [2] [%] |
| --- | --- | --- | --- | --- | --- | --- |
| myosin VI (from UniProt Q64331 1-1262) (natural protein) | 133 | 149 | 173 |  |  |  |
| protein kinase C α (from UniProt P20444 1-672) (enzyme) |  |  | 442 |  |  |  |
| B1 |  |  |  | 175 | 161 | 560 |
